In paper doi:10.1101/2024.05.03.592409 (bioRxiv, 2024):

Key:
Assay in all cases: PIE-FCCS
[1] = target: GCN4 (membrane protein construct, live-cell dimer control)
HER3 = HER3 (human, UniProt P21860 20-1342)
EGFR = EGFR (human, UniProt P00533 25-1210)
HER2 = HER2 (human, UniProt P04626 23-1255)

Chain of HER3 (P21860 20-1342): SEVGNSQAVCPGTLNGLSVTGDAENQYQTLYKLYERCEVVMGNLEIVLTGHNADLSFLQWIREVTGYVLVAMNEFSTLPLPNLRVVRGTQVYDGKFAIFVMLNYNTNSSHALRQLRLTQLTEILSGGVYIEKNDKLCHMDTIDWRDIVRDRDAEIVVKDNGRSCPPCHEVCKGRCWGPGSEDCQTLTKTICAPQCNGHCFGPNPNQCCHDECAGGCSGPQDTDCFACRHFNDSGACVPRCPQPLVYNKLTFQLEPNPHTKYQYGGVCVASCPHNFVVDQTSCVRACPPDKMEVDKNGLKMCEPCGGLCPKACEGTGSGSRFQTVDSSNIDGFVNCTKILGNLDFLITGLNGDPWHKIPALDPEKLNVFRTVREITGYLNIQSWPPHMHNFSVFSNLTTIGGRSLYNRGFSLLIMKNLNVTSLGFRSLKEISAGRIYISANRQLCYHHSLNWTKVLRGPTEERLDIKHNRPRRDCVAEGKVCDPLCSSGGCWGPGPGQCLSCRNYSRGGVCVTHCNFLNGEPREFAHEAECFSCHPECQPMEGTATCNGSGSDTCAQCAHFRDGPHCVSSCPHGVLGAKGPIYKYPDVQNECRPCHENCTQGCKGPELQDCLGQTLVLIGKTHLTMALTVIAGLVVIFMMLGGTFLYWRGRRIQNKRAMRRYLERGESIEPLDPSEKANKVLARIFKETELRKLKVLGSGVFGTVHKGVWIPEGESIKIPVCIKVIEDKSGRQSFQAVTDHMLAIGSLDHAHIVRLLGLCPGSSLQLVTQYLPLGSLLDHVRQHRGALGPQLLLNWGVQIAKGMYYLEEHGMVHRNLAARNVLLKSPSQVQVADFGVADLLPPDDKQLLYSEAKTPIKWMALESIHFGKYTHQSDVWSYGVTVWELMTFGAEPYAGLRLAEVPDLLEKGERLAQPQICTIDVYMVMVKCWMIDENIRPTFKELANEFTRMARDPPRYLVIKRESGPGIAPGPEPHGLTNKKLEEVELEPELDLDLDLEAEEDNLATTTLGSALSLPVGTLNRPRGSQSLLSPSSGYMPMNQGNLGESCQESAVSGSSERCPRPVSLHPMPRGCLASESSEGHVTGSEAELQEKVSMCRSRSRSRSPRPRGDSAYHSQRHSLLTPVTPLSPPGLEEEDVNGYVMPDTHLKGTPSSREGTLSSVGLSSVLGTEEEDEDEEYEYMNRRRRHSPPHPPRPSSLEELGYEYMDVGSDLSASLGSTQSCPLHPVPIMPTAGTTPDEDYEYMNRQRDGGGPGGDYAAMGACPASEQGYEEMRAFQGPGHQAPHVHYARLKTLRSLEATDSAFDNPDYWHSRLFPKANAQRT

median fc (fraction of cross-correlation) [1]	stoichiometry N [1]	median fc (fraction of cross-correlation) (HER3)	median fc (fraction of cross-correlation) (EGFR)	median fc (fraction of cross-correlation) (HER2)	Molecule
0.15	2	–	–	–	GCN4 (membrane protein construct, live-cell dimer control)
–	–	0.11	0.17	0.17	HER4 (receptor) QSVCAGTENKLSSLSDLEQQYRALRKYYENCEVVMGNLEITSIEHNRDLSFLRSVREVTGYVLVALNQFRYLPLENLRIIRGTKLYEDRYALAIFLNYRKDGNFGLQELGLKNLTEILNGGVYVDQNKFLCYADTIHWQDIVRNPWPSNLTLVSTNGSSGCGRCHKSCTGRCWGPTENHCQTLTRTVCAEQCDGRCYGPYVSDCCHRECAGGCSGPKDTDCFACMNFNDSGACVTQCPQTFVYNPTTFQLEHNFNAKYTYGAFCVKKCPHNFVVDSSSCVRACPSSKMEVEENGIKMCKPCTDICPKACDGIGTGSLMSAQTVDSSNIDKFINCTKINGNLIFLVTGIHGDPYNAIEAIDPEKLNVFRTVREITGFLNIQSWPPNMTDFSVFSNLVTIGGRVLYSGLSLLILKQQGITSLQFQSLKEISAGNIYITDNSNLCYYHTINWTTLFSTINQRIVIRDNRKAENCTAEGMVCNHLCSSDGCWGPGPDQCLSCRRFSRGRICIESCNLYDGEFREFENGSICVECDPQCEKMEDGLLTCHGPGPDNCTKCSHFKDGPNCVEKCPDGLQGANSFIFKYADPDRECHPCHPNCTQGCNGPTSHDCIYYPWTGHSTLPQHARTPLIAAGVIGGLFILVIVGLTFAVYVRRKSIKKKRALRRFLETELVEPLTPSGTAPNQAQLRILKETELKRVKVLGSGAFGTVYKGIWVPEGETVKIPVAIKILNETTGPKANVEFMDEALIMASMDHPHLVRLLGVCLSPTIQLVTQLMPHGCLLEYVHEHKDNIGSQLLLNWCVQIAKGMMYLEERRLVHRDLAARNVLVKSPNHVKITDFGLARLLEGDEKEYNADGGKMPIKWMALECIHYRKFTHQSDVWSYGVTIWELMTFGGKPYDGIPTREIPDLLEKGERLPQPPICTIDVYMVMVKCWMIDADSRPKFKELAAEFSRMARDPQRYLVIQGDDRMKLPSPNDSKFFQNLLDEEDLEDMMDAEEYLVPQAFNIPPPIYTSRARIDSNRSEIGHSPPPAYTPMSGNQFVYRDGGFAAEQGVSVPYRAPTSTIPEAPVAQGATAEIFDDSCCNGTLRKPVAPHVQEDSSTQRYSADPTVFAPERSPRGELDEEGYMTPMRDKPKQEYLNPVEENPFVSRRKNGDLQALDNPEYHNASNGPPKAEDEYVNEPLYLNTFANTLGKAEYLKNNILSMPEKAKKAFDNPDYWNHSLPPRSTLQHPDYLQEYSTKYFYKQNGRIRPIVAENPEYLSEFSLKPGTVLPPPPYRHRNTVV
